Measurements reported in IntAct's records for PubMed 20598684.

B1: Abl interactor 1 (Homo sapiens), Q8IZP0 (parent)
chain: MAELQMLLEEEIPSGKRALIESYQNLTRVADYCENNYIQATDKRKALEETKAYTTQSLASVAYQINALANNVLQLLDIQASQLRRMESSINHISQTVDIHKEKVARREIGILTTNKNTSRTHKIIAPANMERPVRYIRKPIDYTVLDDVGHGVKWLKAKHGNNQPARTGTLSRTNPPTQKPPSPPMSGRGTLGRNTPYKTLEPVKPPTVPNDYMTSPARLGSQHSPGRTASLNQRPRTHSGSSGGSGSRENSGSSSIGIPIAVPTPSPPTIGPENISVPPPSGAPPAPPLAPLLPVSTVIAAPGSAPGSQYGTMTRQISRHNSTTSSTSSGGYRRTPSVTAQFSAQPHVNGGPLYSQNSISIAPPPPPMPQLTPQIPLTGFVARVQENIADSPTPPPPPPPDDIPMFDDSPPPPPPPPVDYEDEEAAVVQYNDPYADGDPAWAPKNYIEKVVAIYDYTKDKDDELSFMEGAIIYVIKKNDDGWYEGVCNRVTGLFPGNYVESIMHYTD

Variants of: B1
Details: with p85a_human PIK3R1, P27986
p85a_human PIK3R1, P27986, sequence (P27986 whole entry): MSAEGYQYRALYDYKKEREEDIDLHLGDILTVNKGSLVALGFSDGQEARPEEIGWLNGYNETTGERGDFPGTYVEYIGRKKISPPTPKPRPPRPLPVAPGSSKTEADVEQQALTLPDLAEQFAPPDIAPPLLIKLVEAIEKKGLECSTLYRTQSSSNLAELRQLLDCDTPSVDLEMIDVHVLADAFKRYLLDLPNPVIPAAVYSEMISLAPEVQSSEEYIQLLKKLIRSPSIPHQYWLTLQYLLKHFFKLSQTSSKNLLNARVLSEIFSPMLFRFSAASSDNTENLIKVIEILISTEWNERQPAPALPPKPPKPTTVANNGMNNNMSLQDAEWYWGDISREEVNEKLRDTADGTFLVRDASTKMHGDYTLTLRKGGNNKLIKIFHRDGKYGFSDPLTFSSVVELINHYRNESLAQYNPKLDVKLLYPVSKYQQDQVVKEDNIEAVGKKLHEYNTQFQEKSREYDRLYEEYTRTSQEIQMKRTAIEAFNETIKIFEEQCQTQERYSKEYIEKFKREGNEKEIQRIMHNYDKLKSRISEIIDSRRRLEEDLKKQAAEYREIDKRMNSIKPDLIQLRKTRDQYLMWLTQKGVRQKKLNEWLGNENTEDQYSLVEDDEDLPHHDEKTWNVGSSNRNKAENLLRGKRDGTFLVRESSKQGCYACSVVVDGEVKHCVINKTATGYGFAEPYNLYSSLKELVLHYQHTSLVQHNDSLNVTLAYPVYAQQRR

Row | Variant | effect of a mutation on the interaction
1 | Y213F | disrupting interaction
